Source: article PMC12255788

Molecular target: His6-SUMO-NOT7 (human) (UniProt Q9UIV1)
Assay: mass photometry

Sequence of His6-SUMO-NOT7 (human) (Q9UIV1 whole entry): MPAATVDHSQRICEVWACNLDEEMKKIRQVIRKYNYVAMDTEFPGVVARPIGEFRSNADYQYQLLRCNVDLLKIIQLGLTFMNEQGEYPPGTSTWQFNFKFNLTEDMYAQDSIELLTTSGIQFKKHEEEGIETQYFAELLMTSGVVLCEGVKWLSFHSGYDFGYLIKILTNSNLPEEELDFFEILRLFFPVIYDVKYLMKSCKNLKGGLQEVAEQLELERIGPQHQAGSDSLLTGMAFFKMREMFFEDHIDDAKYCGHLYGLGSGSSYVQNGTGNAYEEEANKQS

Work on “His6-PieF (from UniProt A0AAN5PHN6) (natural protein)” yielded a stoichiometry N of 1.
